The results in this text go back to the Human Domainome abundance scans (Beltran et al. 2025).

± gives the uncertainty stated by the source.

B1: Transcription elongation factor A N-terminal and central domain-containing protein, residues 30 to 77; numbered along this chain, Q8N8B7 (parent)
chain: LTELETIYVTKEHLQETDVVRAVYRVLKNCPSVALKKKAKCLLSKWKA

This data set covers variants of B1. The experiment in a line: abundance fitness (aPCA) (normalised: wild type 0, dead -1); higher = more abundant; growth selection in yeast, the domain comes from the species named. The note with it: Homo sapiens.
On to LTELETIFVTKEHLQETDVVRAVYRVLKNCPSVALKKKAKCLLSKWKA [Y8F], for which the abundance fitness is -0.339 ± 0.2. With LTELETINVTKEHLQETDVVRAVYRVLKNCPSVALKKKAKCLLSKWKA [Y8N], the abundance fitness is -0.043 ± 0.26. The same measure for LTELETIVVTKEHLQETDVVRAVYRVLKNCPSVALKKKAKCLLSKWKA [Y8V]: -0.008 ± 0.16; for LTELETIGVTKEHLQETDVVRAVYRVLKNCPSVALKKKAKCLLSKWKA [Y8G]: 0.156 ± 0.094. Regarding LTELETIAVTKEHLQETDVVRAVYRVLKNCPSVALKKKAKCLLSKWKA [Y8A], the abundance fitness came to 0.274 ± 0.17. For LTELETILVTKEHLQETDVVRAVYRVLKNCPSVALKKKAKCLLSKWKA [Y8L], the abundance fitness was -0.233 ± 0.17. For the variant LTELETICVTKEHLQETDVVRAVYRVLKNCPSVALKKKAKCLLSKWKA [Y8C], the abundance fitness was -0.489 ± 0.38.

As to LTELETIEVTKEHLQETDVVRAVYRVLKNCPSVALKKKAKCLLSKWKA [Y8E], the abundance fitness was 0.448 ± 0.24.

Take LTELETISVTKEHLQETDVVRAVYRVLKNCPSVALKKKAKCLLSKWKA [Y8S]: the abundance fitness is -0.388 ± 0.28. The same measure for LTELETIRVTKEHLQETDVVRAVYRVLKNCPSVALKKKAKCLLSKWKA [Y8R]: -0.094 ± 0.12; for LTELSTIYVTKEHLQETDVVRAVYRVLKNCPSVALKKKAKCLLSKWKA [E5S]: -0.809 ± 0.12; for LTELQTIYVTKEHLQETDVVRAVYRVLKNCPSVALKKKAKCLLSKWKA [E5Q]: -0.498 ± 0.18. As to LTELDTIYVTKEHLQETDVVRAVYRVLKNCPSVALKKKAKCLLSKWKA [E5D], the abundance fitness is -0.186 ± 0.12. For the variant LTELVTIYVTKEHLQETDVVRAVYRVLKNCPSVALKKKAKCLLSKWKA [E5V], the abundance fitness was -0.446 ± 0.1. Turning to LTELLTIYVTKEHLQETDVVRAVYRVLKNCPSVALKKKAKCLLSKWKA [E5L], the abundance fitness is -0.28 ± 0.08. Turning to LTELRTIYVTKEHLQETDVVRAVYRVLKNCPSVALKKKAKCLLSKWKA [E5R], the abundance fitness was -0.769 ± 0.1. As for LTELYTIYVTKEHLQETDVVRAVYRVLKNCPSVALKKKAKCLLSKWKA [E5Y], the abundance fitness is -0.604 ± 0.25. Turning to LTELATIYVTKEHLQETDVVRAVYRVLKNCPSVALKKKAKCLLSKWKA [E5A], the abundance fitness was -0.235 ± 0.12.

LTELMTIYVTKEHLQETDVVRAVYRVLKNCPSVALKKKAKCLLSKWKA [E5M]: the abundance fitness is -0.643 ± 0.11. Take LTELGTIYVTKEHLQETDVVRAVYRVLKNCPSVALKKKAKCLLSKWKA [E5G]: the abundance fitness was -0.775 ± 0.089.

Regarding LTELHTIYVTKEHLQETDVVRAVYRVLKNCPSVALKKKAKCLLSKWKA [E5H], the abundance fitness is -0.346 ± 0.18. With LTELCTIYVTKEHLQETDVVRAVYRVLKNCPSVALKKKAKCLLSKWKA [E5C], the abundance fitness is -0.897 ± 0.17. In the case of LTELPTIYVTKEHLQETDVVRAVYRVLKNCPSVALKKKAKCLLSKWKA [E5P], the abundance fitness is -0.663 ± 0.15. The same measure for LTELITIYVTKEHLQETDVVRAVYRVLKNCPSVALKKKAKCLLSKWKA [E5I]: -0.48 ± 0.12; for LTELKTIYVTKEHLQETDVVRAVYRVLKNCPSVALKKKAKCLLSKWKA [E5K]: -0.393 ± 0.13; for LTELTTIYVTKEHLQETDVVRAVYRVLKNCPSVALKKKAKCLLSKWKA [E5T]: -1.17 ± 0.23. With LTELNTIYVTKEHLQETDVVRAVYRVLKNCPSVALKKKAKCLLSKWKA [E5N], the abundance fitness is -0.587 ± 0.17. Under LTELETIYVGKEHLQETDVVRAVYRVLKNCPSVALKKKAKCLLSKWKA [T10G] stands -0.164 ± 0.067; under LTELETIYVSKEHLQETDVVRAVYRVLKNCPSVALKKKAKCLLSKWKA [T10S], -0.121 ± 0.084. LTELETIYVVKEHLQETDVVRAVYRVLKNCPSVALKKKAKCLLSKWKA [T10V]: the abundance fitness is -0.18 ± 0.12. Under LTELETIYVMKEHLQETDVVRAVYRVLKNCPSVALKKKAKCLLSKWKA [T10M] stands -0.143 ± 0.12; under LTELETIYVNKEHLQETDVVRAVYRVLKNCPSVALKKKAKCLLSKWKA [T10N], -0.546 ± 0.16. On to LTELETIYVQKEHLQETDVVRAVYRVLKNCPSVALKKKAKCLLSKWKA [T10Q], for which the abundance fitness came to 0.117 ± 0.11. With LTELETIYVLKEHLQETDVVRAVYRVLKNCPSVALKKKAKCLLSKWKA [T10L], the abundance fitness is -0.674 ± 0.14.

Consider LTELETIYVDKEHLQETDVVRAVYRVLKNCPSVALKKKAKCLLSKWKA [T10D], for which the abundance fitness is -0.31 ± 0.23.

For the variant LTELETIYVRKEHLQETDVVRAVYRVLKNCPSVALKKKAKCLLSKWKA [T10R], the abundance fitness was -0.041 ± 0.069.

As for LTELETIYVEKEHLQETDVVRAVYRVLKNCPSVALKKKAKCLLSKWKA [T10E], the abundance fitness was -0.139 ± 0.1.

Turning to LTELETIYVFKEHLQETDVVRAVYRVLKNCPSVALKKKAKCLLSKWKA [T10F], the abundance fitness is -0.547 ± 0.22. Consider LTELETIYVWKEHLQETDVVRAVYRVLKNCPSVALKKKAKCLLSKWKA [T10W], for which the abundance fitness is -0.315 ± 0.095.

For the variant LTELETIYVIKEHLQETDVVRAVYRVLKNCPSVALKKKAKCLLSKWKA [T10I], the abundance fitness is -0.657 ± 0.43. On to LTELETIYVYKEHLQETDVVRAVYRVLKNCPSVALKKKAKCLLSKWKA [T10Y], for which the abundance fitness was -0.771 ± 0.22. For LTELETIYVCKEHLQETDVVRAVYRVLKNCPSVALKKKAKCLLSKWKA [T10C], the abundance fitness was -0.566 ± 0.18. On to LTELETIYVKKEHLQETDVVRAVYRVLKNCPSVALKKKAKCLLSKWKA [T10K], for which the abundance fitness was -0.198 ± 0.098.

In the case of LTELETIYVHKEHLQETDVVRAVYRVLKNCPSVALKKKAKCLLSKWKA [T10H], the abundance fitness is -0.23 ± 0.36. Consider LTELETIYVAKEHLQETDVVRAVYRVLKNCPSVALKKKAKCLLSKWKA [T10A], for which the abundance fitness is -0.017 ± 0.079. For the variant LTELESIYVTKEHLQETDVVRAVYRVLKNCPSVALKKKAKCLLSKWKA [T6S], the abundance fitness was found to be 0.12 ± 0.082. Take LTELEGIYVTKEHLQETDVVRAVYRVLKNCPSVALKKKAKCLLSKWKA [T6G]: the abundance fitness was -0.024 ± 0.063. Under LTELEDIYVTKEHLQETDVVRAVYRVLKNCPSVALKKKAKCLLSKWKA [T6D] stands 0.094 ± 0.1. As for LTELECIYVTKEHLQETDVVRAVYRVLKNCPSVALKKKAKCLLSKWKA [T6C], the abundance fitness is -0.262 ± 0.1. With LTELEAIYVTKEHLQETDVVRAVYRVLKNCPSVALKKKAKCLLSKWKA [T6A], the abundance fitness was -0.355 ± 0.086. Consider LTELERIYVTKEHLQETDVVRAVYRVLKNCPSVALKKKAKCLLSKWKA [T6R], for which the abundance fitness is -0.074 ± 0.068. Consider LTELEMIYVTKEHLQETDVVRAVYRVLKNCPSVALKKKAKCLLSKWKA [T6M], for which the abundance fitness was -0.107 ± 0.11. As to LTELEIIYVTKEHLQETDVVRAVYRVLKNCPSVALKKKAKCLLSKWKA [T6I], the abundance fitness was -0.891 ± 0.27. As for LTELEYIYVTKEHLQETDVVRAVYRVLKNCPSVALKKKAKCLLSKWKA [T6Y], the abundance fitness was -0.513 ± 0.32.
